This note sets out measurements from patent US20190062386A1 (UNIVERSITY OF NORTH CAROLINA AT CHAPEL HILL, published 2019).

This assay concerns the target T1, Myc tagged TRPC3 (UniProt Q13507-3 1-848, limits assumed).
T1 construct: Expressed in HEK293T cells and tested in cell lysates; also called Myc-TRPC3
T1 sequence (looked up): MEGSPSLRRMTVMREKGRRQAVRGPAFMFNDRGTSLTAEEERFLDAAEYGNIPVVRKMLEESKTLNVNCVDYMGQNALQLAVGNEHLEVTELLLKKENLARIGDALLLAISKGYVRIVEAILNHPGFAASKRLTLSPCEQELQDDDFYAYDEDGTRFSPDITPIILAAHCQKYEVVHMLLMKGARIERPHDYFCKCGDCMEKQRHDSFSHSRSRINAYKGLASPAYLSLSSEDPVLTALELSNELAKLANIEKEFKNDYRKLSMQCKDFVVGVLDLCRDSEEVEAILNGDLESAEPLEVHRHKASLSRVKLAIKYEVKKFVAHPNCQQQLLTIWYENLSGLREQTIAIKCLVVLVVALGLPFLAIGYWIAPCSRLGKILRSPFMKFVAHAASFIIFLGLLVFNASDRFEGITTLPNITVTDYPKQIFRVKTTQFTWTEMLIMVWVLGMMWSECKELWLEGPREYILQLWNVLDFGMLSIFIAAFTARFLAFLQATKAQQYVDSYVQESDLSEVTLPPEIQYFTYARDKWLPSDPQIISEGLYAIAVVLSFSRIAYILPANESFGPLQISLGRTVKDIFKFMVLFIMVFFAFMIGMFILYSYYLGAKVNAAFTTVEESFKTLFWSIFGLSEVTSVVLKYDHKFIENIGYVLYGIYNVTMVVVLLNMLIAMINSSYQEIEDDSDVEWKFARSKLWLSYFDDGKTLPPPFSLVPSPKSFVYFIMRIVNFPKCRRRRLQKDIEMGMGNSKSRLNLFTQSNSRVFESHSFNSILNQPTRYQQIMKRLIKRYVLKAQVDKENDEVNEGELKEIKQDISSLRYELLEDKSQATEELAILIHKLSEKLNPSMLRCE
The assay is described as follows: co-immunoprecipitation from lysates of HEK293T cells cotransfected with V5-SPLUNC1 and Myc-TRPC3. On the procedure:
Immunoprecipitation analysis was performed using cell lysates from HEK293T cells cotransfected with V5-SPLUNC1 and Myc-TRPC3. Data represents an n=3 blots.
Antibodies, immunoprecipitation, and immunoblot analysis: Rabbit anti-Orai1, anti-HA epitope (Santa Cruz), anti-GFP, anti-phospho-myosin light chain, anti-total myosin light chain, anti-GAPDH (glyceraldehyde-3-phosphate dehydrogenase) (Cell Signaling Technology); mouse anti-V5 epitope (Life Technologies), were purchased from commercial sources. To detect protein expression in total cell lysates, cells were lysed in Pierce® IP lysis buffer with 25 mM Tris-HCl pH 7.4, 150 mM NaCl, 1% NP-40, 1 mM EDTA, 5% glycerol, followed by SDS-polyacrylamide electrophoresis and immunoblot.

B1: V5-SPLUNC1 (other, not shown: small tags and cut ends)
chain: QFGGLPVPLDQTLPLNVNPALPLSPTGLAGSLTNALSNGLLSGGLLGILENLPLLDILKPGGGTSGGLLGGLLGKVTSVIPGLNNIIDIKVTDPQLLELGLVQSPDGHRLYVTIPLGIKLQVNTPLVGASLLRLAVKLDITAEILAVRDKQERIHLVLGDCTHSPGSLQISLLDGLGPLPIQGLLDSLTGILNKVLPELVQGNVCPLVNEVLRGLDITLVHDIVNMLIHGLQFVIKV
notes: Expressed in HEK293T cells and tested in cell lysates; The tag is placed first only because the name is printed that way; also called pcDNA3.1(+)-V5-SPLUNC1
As for B1, the binding result is recorded as “no binding”.
